B1: Cy3-Rec-PTJ (mixed)
DNA 1: ACTCCTTCCGCACGTAATTTTTGACGCAC
DNA 2: TGACTCTTCTGCGTTCGCTGATGCGCCGACGGGTGCGTCAAAAATTACGTGCGGAAGGAGT
modifications: THF 7 nt from the junction

Tests used:
[1] = target: APE1Dead (catalytically dead APE1) (human, UniProt P27695 1-318, D210N;E96Q); experiment: competition; FRET; DNA pre-saturated with 75 nM Cy5-RPA; APE1Dead completely exchanges for RPA; EMSA: 50 mM Tris pH 8, 1 mM EDTA, 0.2 mg/ml BSA, 1 mM DTT, 5% sucrose, room temperature, 5 nM DNA; FRET: 20 mM HEPES pH 7.5, 150 mM KCl, 5 mM MgCl2, 5 mM CaCl2, 1 mM DTT, ionic strength 200 mM with KCl, 23 C; details: protein: recombinant; label: Cy3 at primer 3' end; 3' recessed primer-template junction, 5' ssDNA overhang 33 nt
[2] = target: RPA (RPA1/RPA2/RPA3 heterotrimer) (human, UniProt P27694;P15927;P35244 1-616;1-270;1-121); experiment: mass photometry; 4:1 RPA:DNA; a single RPA per DNA; EMSA: 50 mM Tris pH 8, 1 mM EDTA, 0.2 mg/ml BSA, 1 mM DTT, 5% sucrose, room temperature, 5 nM DNA; FRET: 20 mM HEPES pH 7.5, 150 mM KCl, 5 mM MgCl2, 5 mM CaCl2, 1 mM DTT, ionic strength 200 mM with KCl, 23 C; details: protein: recombinant; copies: 1;1;1
Sequence of RPA (RPA1/RPA2/RPA3 heterotrimer) (P27694 whole entry, chain 1 of 3): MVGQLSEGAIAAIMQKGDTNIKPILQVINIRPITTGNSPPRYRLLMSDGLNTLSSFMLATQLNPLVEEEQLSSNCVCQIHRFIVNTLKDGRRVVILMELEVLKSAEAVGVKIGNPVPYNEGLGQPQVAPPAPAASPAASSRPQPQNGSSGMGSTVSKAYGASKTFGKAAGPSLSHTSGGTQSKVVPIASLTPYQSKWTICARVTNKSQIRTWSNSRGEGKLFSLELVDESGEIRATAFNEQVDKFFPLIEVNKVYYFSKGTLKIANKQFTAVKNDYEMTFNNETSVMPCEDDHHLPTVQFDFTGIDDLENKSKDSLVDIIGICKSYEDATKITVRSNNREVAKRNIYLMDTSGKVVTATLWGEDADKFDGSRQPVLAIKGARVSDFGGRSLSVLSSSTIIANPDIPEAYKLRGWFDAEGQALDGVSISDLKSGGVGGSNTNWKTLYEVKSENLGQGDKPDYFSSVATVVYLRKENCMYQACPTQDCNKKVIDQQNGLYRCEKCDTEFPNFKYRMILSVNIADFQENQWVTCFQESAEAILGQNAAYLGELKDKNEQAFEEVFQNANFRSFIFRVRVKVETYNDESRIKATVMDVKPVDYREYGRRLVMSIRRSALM
Sequence of RPA (RPA1/RPA2/RPA3 heterotrimer) (P15927 whole entry, chain 2 of 3): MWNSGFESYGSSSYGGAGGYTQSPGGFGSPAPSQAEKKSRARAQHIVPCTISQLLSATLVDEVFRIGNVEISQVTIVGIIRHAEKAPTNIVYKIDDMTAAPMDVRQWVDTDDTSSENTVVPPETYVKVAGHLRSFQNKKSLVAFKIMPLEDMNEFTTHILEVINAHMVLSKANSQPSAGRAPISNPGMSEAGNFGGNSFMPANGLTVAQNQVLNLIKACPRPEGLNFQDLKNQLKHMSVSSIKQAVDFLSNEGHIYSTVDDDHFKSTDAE
Sequence of RPA (RPA1/RPA2/RPA3 heterotrimer) (P35244 whole entry, chain 3 of 3): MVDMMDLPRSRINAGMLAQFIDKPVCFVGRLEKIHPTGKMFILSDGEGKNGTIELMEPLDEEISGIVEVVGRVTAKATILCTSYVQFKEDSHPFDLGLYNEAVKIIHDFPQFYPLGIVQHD

Sequence of APE1Dead (catalytically dead APE1) (P27695 whole entry E96Q/D210N): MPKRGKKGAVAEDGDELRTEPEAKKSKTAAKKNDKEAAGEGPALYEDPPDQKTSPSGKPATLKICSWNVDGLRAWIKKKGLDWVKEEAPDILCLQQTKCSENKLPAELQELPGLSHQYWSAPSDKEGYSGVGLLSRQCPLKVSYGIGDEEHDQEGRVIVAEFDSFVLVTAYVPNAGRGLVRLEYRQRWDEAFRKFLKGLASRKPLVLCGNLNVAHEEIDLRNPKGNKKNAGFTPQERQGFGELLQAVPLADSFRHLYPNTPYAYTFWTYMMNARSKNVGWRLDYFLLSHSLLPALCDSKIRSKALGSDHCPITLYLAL

| Binder | binding result [1] | binding result [2] |
| --- | --- | --- |
| B1 | binds |  |
| TTTTTTTTTTTTTTTTTTTTTTTTTTTTTTTTTTT (ssDNA) [(dT)35] |  | binds |

Source: publication PMC10359615, “Mechanistic insight into AP-endonuclease 1 cleavage of abasic sites at stalled replication fork mimics”
